Measured values taken from PMC7572726 (Nature, 2020).

Target: the molecule itself
Assay: crystal structure

B1: Flavobacteriaceae sp. STING (ΔTM) (domain or fragment)
chain: EAEYSPAFALAVGYFKNFIFPAITQIKENGEVNPKICIYKPKHFDELTSTNIDMIKAELTNKKYNLSEINLSLKGARARDILTLNKKSKIHSYFDFPNTLLSLYSYVDFKIASSNNNSSELKKKKFVELLIEQFYLKLNELIQENNLTNNITFCDKNLQGL
With B1 the “stoichiometry N” value was 2.
